Numbered stars: 1 amine (or outer) side, 2 acyl side, 3 side chain; on linkers, the order of the positions; unused ones are H or OH. * marks the point of attachment. C20 diacid = O=C(O)CCCCCCCCCCCCCCCCCCC(=O)*; C18 diacid = O=C(O)CCCCCCCCCCCCCCCCC(=O)*; γGlu = O=C(O)[C@H](CCC(=O)[*:2])N[*:1]
T1: human amylin receptor (human calcitonin receptor + human RAMP3) (human) (UniProt P30988)
T1 sequence (looked up) 1: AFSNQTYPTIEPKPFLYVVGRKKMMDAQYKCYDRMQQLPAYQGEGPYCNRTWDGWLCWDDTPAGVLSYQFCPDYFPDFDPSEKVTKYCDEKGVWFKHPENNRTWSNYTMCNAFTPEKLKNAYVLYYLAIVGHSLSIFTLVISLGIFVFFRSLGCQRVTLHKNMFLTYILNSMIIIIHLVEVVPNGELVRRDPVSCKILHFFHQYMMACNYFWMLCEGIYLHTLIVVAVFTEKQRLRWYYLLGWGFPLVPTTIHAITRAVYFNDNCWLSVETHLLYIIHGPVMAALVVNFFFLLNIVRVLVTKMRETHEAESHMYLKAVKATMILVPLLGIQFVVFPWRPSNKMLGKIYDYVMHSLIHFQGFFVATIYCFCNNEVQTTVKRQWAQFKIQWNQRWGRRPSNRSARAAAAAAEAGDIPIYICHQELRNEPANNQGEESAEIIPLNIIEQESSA
T1 sequence (looked up) 2: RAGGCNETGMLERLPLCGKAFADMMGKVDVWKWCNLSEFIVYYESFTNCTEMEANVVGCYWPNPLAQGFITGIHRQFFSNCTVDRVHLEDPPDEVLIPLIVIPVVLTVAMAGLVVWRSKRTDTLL

B1: [N-terminal(C20 diacid-gGlu), des1, 23Y, 30S, 31G, 34G, C-terminal(-)]mimylin (peptide)
peptide: {C20 diacid-γGlu}-ASELSTAALGRLSAELHELATYPRTETGSGSPG-OH
SMILES: CC(C)C[C@H](NC(=O)[C@H](C)NC(=O)[C@H](C)NC(=O)[C@@H](NC(=O)[C@H](CO)NC(=O)[C@H](CC(C)C)NC(=O)[C@H](CCC(=O)O)NC(=O)[C@H](CO)NC(=O)[C@H](C)NC(=O)CC[C@H](NC(=O)CCCCCCCCCCCCCCCCCCC(=O)O)C(=O)O)[C@@H](C)O)C(=O)NCC(=O)N[C@@H](CCCNC(=N)N)C(=O)N[C@@H](CC(C)C)C(=O)N[C@@H](CO)C(=O)N[C@@H](C)C(=O)N[C@@H](CCC(=O)O)C(=O)N[C@@H](CC(C)C)C(=O)N[C@@H](Cc1c[nH]cn1)C(=O)N[C@@H](CCC(=O)O)C(=O)N[C@@H](CC(C)C)C(=O)N[C@@H](C)C(=O)N[C@H](C(=O)N[C@@H](Cc1ccc(O)cc1)C(=O)N1CCC[C@H]1C(=O)N[C@@H](CCCNC(=N)N)C(=O)N[C@H](C(=O)N[C@@H](CCC(=O)O)C(=O)N[C@H](C(=O)NCC(=O)N[C@@H](CO)C(=O)NCC(=O)N[C@@H](CO)C(=O)N1CCC[C@H]1C(=O)NCC(=O)O)[C@@H](C)O)[C@@H](C)O)[C@@H](C)O
B2: [N-terminal(C20 diacid-gGlu), des1, 23Y, 30S, 31G, 34K, C-terminal(-)]mimylin (peptide)
peptide: {C20 diacid-γGlu}-ASELSTAALGRLSAELHELATYPRTETGSGSPK-OH
SMILES: CC(C)C[C@H](NC(=O)[C@H](C)NC(=O)[C@H](C)NC(=O)[C@@H](NC(=O)[C@H](CO)NC(=O)[C@H](CC(C)C)NC(=O)[C@H](CCC(=O)O)NC(=O)[C@H](CO)NC(=O)[C@H](C)NC(=O)CC[C@H](NC(=O)CCCCCCCCCCCCCCCCCCC(=O)O)C(=O)O)[C@@H](C)O)C(=O)NCC(=O)N[C@@H](CCCNC(=N)N)C(=O)N[C@@H](CC(C)C)C(=O)N[C@@H](CO)C(=O)N[C@@H](C)C(=O)N[C@@H](CCC(=O)O)C(=O)N[C@@H](CC(C)C)C(=O)N[C@@H](Cc1c[nH]cn1)C(=O)N[C@@H](CCC(=O)O)C(=O)N[C@@H](CC(C)C)C(=O)N[C@@H](C)C(=O)N[C@H](C(=O)N[C@@H](Cc1ccc(O)cc1)C(=O)N1CCC[C@H]1C(=O)N[C@@H](CCCNC(=N)N)C(=O)N[C@H](C(=O)N[C@@H](CCC(=O)O)C(=O)N[C@H](C(=O)NCC(=O)N[C@@H](CO)C(=O)NCC(=O)N[C@@H](CO)C(=O)N1CCC[C@H]1C(=O)N[C@@H](CCCCN)C(=O)O)[C@@H](C)O)[C@@H](C)O)[C@@H](C)O
B3: [N-terminal(C20 diacid-gGlu), des1, 9T, 21S, 23Y, 30S, 31G]mimylin (peptide)
peptide: {C20 diacid-γGlu}-ASELSTATLGRLSAELHELSTYPRTETGSGSP-NH2
SMILES: CC(C)C[C@H](NC(=O)[C@H](CCCNC(=N)N)NC(=O)CNC(=O)[C@H](CC(C)C)NC(=O)[C@@H](NC(=O)[C@H](C)NC(=O)[C@@H](NC(=O)[C@H](CO)NC(=O)[C@H](CC(C)C)NC(=O)[C@H](CCC(=O)O)NC(=O)[C@H](CO)NC(=O)[C@H](C)NC(=O)CC[C@H](NC(=O)CCCCCCCCCCCCCCCCCCC(=O)O)C(=O)O)[C@@H](C)O)[C@@H](C)O)C(=O)N[C@@H](CO)C(=O)N[C@@H](C)C(=O)N[C@@H](CCC(=O)O)C(=O)N[C@@H](CC(C)C)C(=O)N[C@@H](Cc1c[nH]cn1)C(=O)N[C@@H](CCC(=O)O)C(=O)N[C@@H](CC(C)C)C(=O)N[C@@H](CO)C(=O)N[C@H](C(=O)N[C@@H](Cc1ccc(O)cc1)C(=O)N1CCC[C@H]1C(=O)N[C@@H](CCCNC(=N)N)C(=O)N[C@H](C(=O)N[C@@H](CCC(=O)O)C(=O)N[C@H](C(=O)NCC(=O)N[C@@H](CO)C(=O)NCC(=O)N[C@@H](CO)C(=O)N1CCC[C@H]1C(N)=O)[C@@H](C)O)[C@@H](C)O)[C@@H](C)O
B4: [N-terminal(C20 diacid-gGlu), des1, 12H, 25H, 30T, 31G, 32T]mimylin (peptide)
peptide: {C20 diacid-γGlu}-ASELSTAALGHLSAELHELATLPHTETGTGTP-NH2
SMILES: CC(C)C[C@H](NC(=O)[C@H](C)NC(=O)[C@H](C)NC(=O)[C@@H](NC(=O)[C@H](CO)NC(=O)[C@H](CC(C)C)NC(=O)[C@H](CCC(=O)O)NC(=O)[C@H](CO)NC(=O)[C@H](C)NC(=O)CC[C@H](NC(=O)CCCCCCCCCCCCCCCCCCC(=O)O)C(=O)O)[C@@H](C)O)C(=O)NCC(=O)N[C@@H](Cc1c[nH]cn1)C(=O)N[C@@H](CC(C)C)C(=O)N[C@@H](CO)C(=O)N[C@@H](C)C(=O)N[C@@H](CCC(=O)O)C(=O)N[C@@H](CC(C)C)C(=O)N[C@@H](Cc1c[nH]cn1)C(=O)N[C@@H](CCC(=O)O)C(=O)N[C@@H](CC(C)C)C(=O)N[C@@H](C)C(=O)N[C@H](C(=O)N[C@@H](CC(C)C)C(=O)N1CCC[C@H]1C(=O)N[C@@H](Cc1c[nH]cn1)C(=O)N[C@H](C(=O)N[C@@H](CCC(=O)O)C(=O)N[C@H](C(=O)NCC(=O)N[C@H](C(=O)NCC(=O)N[C@H](C(=O)N1CCC[C@H]1C(N)=O)[C@@H](C)O)[C@@H](C)O)[C@@H](C)O)[C@@H](C)O)[C@@H](C)O
B5: [N-terminal(C18 diacid-gGlu), des1, 5V, 9V, 10V, 30S, 31G]mimylin (peptide)
peptide: {C18 diacid-γGlu}-ASEVSTAVVGRLSAELHELATLPRTETGSGSP-NH2
SMILES: CC(C)C[C@H](NC(=O)[C@H](CCC(=O)O)NC(=O)[C@H](Cc1c[nH]cn1)NC(=O)[C@H](CC(C)C)NC(=O)[C@H](CCC(=O)O)NC(=O)[C@H](C)NC(=O)[C@H](CO)NC(=O)[C@H](CC(C)C)NC(=O)[C@H](CCCNC(=N)N)NC(=O)CNC(=O)[C@@H](NC(=O)[C@@H](NC(=O)[C@H](C)NC(=O)[C@@H](NC(=O)[C@H](CO)NC(=O)[C@@H](NC(=O)[C@H](CCC(=O)O)NC(=O)[C@H](CO)NC(=O)[C@H](C)NC(=O)CC[C@H](NC(=O)CCCCCCCCCCCCCCCCC(=O)O)C(=O)O)C(C)C)[C@@H](C)O)C(C)C)C(C)C)C(=O)N[C@@H](C)C(=O)N[C@H](C(=O)N[C@@H](CC(C)C)C(=O)N1CCC[C@H]1C(=O)N[C@@H](CCCNC(=N)N)C(=O)N[C@H](C(=O)N[C@@H](CCC(=O)O)C(=O)N[C@H](C(=O)NCC(=O)N[C@@H](CO)C(=O)NCC(=O)N[C@@H](CO)C(=O)N1CCC[C@H]1C(N)=O)[C@@H](C)O)[C@@H](C)O)[C@@H](C)O
B6: [N-terminal(C20 diacid-gGlu), des1, 21S, 23Y, 30S, 31G, 33Y]mimylin (peptide)
peptide: {C20 diacid-γGlu}-ASELSTAALGRLSAELHELSTYPRTETGSGSY-NH2
SMILES: CC(C)C[C@H](NC(=O)[C@H](C)NC(=O)[C@H](C)NC(=O)[C@@H](NC(=O)[C@H](CO)NC(=O)[C@H](CC(C)C)NC(=O)[C@H](CCC(=O)O)NC(=O)[C@H](CO)NC(=O)[C@H](C)NC(=O)CC[C@H](NC(=O)CCCCCCCCCCCCCCCCCCC(=O)O)C(=O)O)[C@@H](C)O)C(=O)NCC(=O)N[C@@H](CCCNC(=N)N)C(=O)N[C@@H](CC(C)C)C(=O)N[C@@H](CO)C(=O)N[C@@H](C)C(=O)N[C@@H](CCC(=O)O)C(=O)N[C@@H](CC(C)C)C(=O)N[C@@H](Cc1c[nH]cn1)C(=O)N[C@@H](CCC(=O)O)C(=O)N[C@@H](CC(C)C)C(=O)N[C@@H](CO)C(=O)N[C@H](C(=O)N[C@@H](Cc1ccc(O)cc1)C(=O)N1CCC[C@H]1C(=O)N[C@@H](CCCNC(=N)N)C(=O)N[C@H](C(=O)N[C@@H](CCC(=O)O)C(=O)N[C@H](C(=O)NCC(=O)N[C@@H](CO)C(=O)NCC(=O)N[C@@H](CO)C(=O)N[C@@H](Cc1ccc(O)cc1)C(N)=O)[C@@H](C)O)[C@@H](C)O)[C@@H](C)O
B7: [N-terminal(C20 diacid-gGlu), des1, 12K, 23Y, 25K, 30S, 31G, 33Y]mimylin (peptide)
peptide: {C20 diacid-γGlu}-ASELSTAALGKLSAELHELATYPKTETGSGSY-NH2
SMILES: CC(C)C[C@H](NC(=O)[C@H](C)NC(=O)[C@H](C)NC(=O)[C@@H](NC(=O)[C@H](CO)NC(=O)[C@H](CC(C)C)NC(=O)[C@H](CCC(=O)O)NC(=O)[C@H](CO)NC(=O)[C@H](C)NC(=O)CC[C@H](NC(=O)CCCCCCCCCCCCCCCCCCC(=O)O)C(=O)O)[C@@H](C)O)C(=O)NCC(=O)N[C@@H](CCCCN)C(=O)N[C@@H](CC(C)C)C(=O)N[C@@H](CO)C(=O)N[C@@H](C)C(=O)N[C@@H](CCC(=O)O)C(=O)N[C@@H](CC(C)C)C(=O)N[C@@H](Cc1c[nH]cn1)C(=O)N[C@@H](CCC(=O)O)C(=O)N[C@@H](CC(C)C)C(=O)N[C@@H](C)C(=O)N[C@H](C(=O)N[C@@H](Cc1ccc(O)cc1)C(=O)N1CCC[C@H]1C(=O)N[C@@H](CCCCN)C(=O)N[C@H](C(=O)N[C@@H](CCC(=O)O)C(=O)N[C@H](C(=O)NCC(=O)N[C@@H](CO)C(=O)NCC(=O)N[C@@H](CO)C(=O)N[C@@H](Cc1ccc(O)cc1)C(N)=O)[C@@H](C)O)[C@@H](C)O)[C@@H](C)O

target: T1, human amylin receptor (human calcitonin receptor + human RAMP3) (human); assay: whole-cell competition vs 125I-rat amylin (Assay Va)

In order of falling IC50:
1. B2  21 nM
2. B1  7.26 nM
3. B3  2.61 nM
4. {C18 diacid-γGlu}-ASELTTAVLGRLSAELHELATLPRTETGTGTP-NH2 [[N-terminal(C18 diacid-gGlu), des1, 6T, 9V, 30T, 31G, 32T]mimylin]  2.15 nM
5. B4  1.51 nM
6. B5  1.17 nM
7. {C18 diacid-γGlu}-ASELTTAVLGRLSAELHELATLPRTETGSGTP-NH2 [[N-terminal(C18 diacid-gGlu), des1, 6T, 9V, 30S, 31G, 32T]mimylin]  0.652 nM
8. B7  0.588 nM
9. B6  0.186 nM

From patent US20160272683A1 (Novo Nordisk, published 2016)
